Values of other authors, collected in article PMC3758474.

Key:
[1] = target: erbB2 pY1139 peptide pY1139 peptide (Homo sapiens) (UniProt P04626); test: ITC
Grb7 SH2 (Homo sapiens) = Grb7 SH2 (Homo sapiens) (UniProt Q14451)

## Grb7 SH2 (from UniProt Q14451)
[1]
  Kd: 2.28 µM
Grb7 SH2 (Homo sapiens)
  Kd: 11 µM
